The values below are quoted from earlier work in publication PMC11638072.

The data set concerns the target Trigger factor (Escherichia coli) (UniProt P0A850).

Chain of Trigger factor (P0A850 whole entry): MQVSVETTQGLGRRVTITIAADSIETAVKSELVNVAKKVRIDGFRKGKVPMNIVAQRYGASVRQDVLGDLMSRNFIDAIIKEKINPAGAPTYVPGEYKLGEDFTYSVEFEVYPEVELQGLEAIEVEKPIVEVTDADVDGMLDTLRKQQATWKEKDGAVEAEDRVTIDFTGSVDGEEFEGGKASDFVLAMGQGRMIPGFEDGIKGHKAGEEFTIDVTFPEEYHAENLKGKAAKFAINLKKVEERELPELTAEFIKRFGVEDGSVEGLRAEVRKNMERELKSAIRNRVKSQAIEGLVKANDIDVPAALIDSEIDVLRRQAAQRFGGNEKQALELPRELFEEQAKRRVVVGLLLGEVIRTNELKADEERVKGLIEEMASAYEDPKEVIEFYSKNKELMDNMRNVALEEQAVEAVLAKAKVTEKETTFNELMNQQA

Turning to Trigger factor (from UniProt P0A850), the Kd – broadly, the concentration at which binding is half-saturated – was 1 µM.
